For assay [1], the target named is ATP-grasp ligase CdnC (Chryseobacterium gregarium DSM 19109). In words: SEC.

By stoichiometry N is commonly meant the number of molecules, sites or subunits per partner or assembly. On to ATP-grasp ligase CdnC (enzyme), for which the stoichiometry N in assay [1] was 2.
Substance “chryseoviridin (fully cyclized, full length core region of CdnA3) (peptide)” displayed an inhibition of chymotrypsin activity (protease inhibition assay) in the assay with chymotrypsin of 70 nM.

The record behind these values is publication PMC9353652 (Journal of the American Chemical Society, 2021).
